Test results taken from the nanobody polyreactivity screen of Harvey et al. (2022).

Assay: yeast display, Sf9 membrane polyspecificity reagent, FACS + sequencing; frameworks hold sequencing errors
In short: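 Synthetic nanobody libraries on Saccharomyces cerevisiae BJ5465 were galactose-induced for 36–48 hours, stained 1 hour at 4 °C with 10% biotinylated, detergent-solubilized Sf9 membrane reagent and enriched on streptavidin microbeads. FACS then separated cells into low and high (top ~1%) gates by anti-HA (expression) and streptavidin (reagent binding) fluorescence. Genes were colony-PCR amplified, MiSeq 2 × 250 sequenced and CDR-length filtered. A clone's polyreactivity label is that of its gate of origin.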

Row | Sequence | polyreactivity (PSR sort gate)
1 | QVQLVESGGGLVQAGGSLRLSCAASGSIFSTNAMGWYRQAPGKEWELVAVITGIGGITYYADSVKGRFTISRDNAKNTDYLQMNSLKPEDTAVYYCAADPISEFYWGVKDRYDYWGQGTQVTVSS | low polyreactivity
2 | QVQLVESGGGLVQAGGSLRLSCAASGSIFSTNGMGWYRQAPGKERELVAAISTGGRTYYADSVKGRFTISRDNAKNTVYLQMNSLKPEDTAVYYCAKRFGYRSTEILDYWGQGTQVTVSS | low polyreactivity
3 | QVQLVESGGGLVQAGGSLRLSCAASGSIFSTYAMGWSRQAPGKERELVAAINRSGGSTTYADSVKGRCTISRDNAKNTVYLQMNSLKPEDTAVYYCAKAFRGHYWGQGTQVSVSS | high polyreactivity
4 | QVQLVESGGGLVQAGGSLRLSCAASGSIFSTYAMGWYRQAPGKERELVAAITTSGGRTYYADSVKGRFTISRDNAKNTVYVQMNSLKPEETAVYYCNAVRGGRYGLDYWGQGTQVTVSS | high polyreactivity
5 | QVQLVESGGGLVQAGGSLRLSCAASGSIFSTYAMGWYRQAPGKERELVASINYSGGSTYYADSVKGRFTISRDNAKNTVYLQMNSLKPEDTAVYYCNTGPFVGFDYWGQGTQVTVSS | low polyreactivity
6 | QVQLVESGGGLVQAGGSLRLSCAASGSIFSTYTMGWYRQAPGKERELVAGISKSGGSTYYADSVKGRFTISRDNAKNTVYLQMNSLKPEDTAVYYCAAPVPKTDKLLRMYYWGQGTQVTVSS | high polyreactivity
7 | QVQLVESGGGLVQAGGSLRLSCAASGSIFSTYVMGWYRPAPGKERELVAAIRWRATSTFYADSVKGRFTISRDNAKNTVYLQMNSLKPEDTAVYYCNRYHRTSWRAKYDYWGQGTQVTVSS | high polyreactivity
8 | QVQLVESGGGLVQAGGSLRLSCAASGSIFSTYVMGWYRQAPGKERELVAAITVSVGSTYYADSVKGRFTISRDNAKNTVYLQMNSLKPEDTAVYYCAAYGGTGYPFDAYYHDYDYWGQGTQVSVSS | low polyreactivity
9 | QVQLVESGGGLVQAGGSLRLSCAASGSIFSVNAMGWYRQAPGKERELVASINFRGGRTYYADSVKGRFTISRDNAKNTVYLQMNSLKPEDTAVYYCAAVISQTDTGYGPSFRVYYWGQGTQVTVSS | high polyreactivity
10 | QVQLVESGGGLVQAGGSLRLSCAASGSIFSVYVMGWYRQAPGKERELVAAISWSDSDTYYADSVKGRFTISRDNAKNTVYLQMNSLKPEDTAVYYCAAETFDYADYIANGSGEYDYWGQGTQVTVSS | high polyreactivity
11 | QVQLVESGGGLVQAGGSLRLSCAASGSIFSWYAMGWYRQAPGKERELVAAISGITGSTYYADSVKGRFTISRDNAKNTVYLQMNSLKPEDTAVYYCRALAGYASGMDYWGQGTQVTVSS | high polyreactivity
12 | QVQLVESGGGLVQAGGSLRLSCAASGSIFSWYAMGWYRQAPGKERELVAAISNAGRTYYADSVKGRFTISRDNAKNTVYLQMNSLKPEDTAVYYCAAAGPRQGNYGGYEYWGQGTQVTVSS | high polyreactivity
13 | QVQLVESGGGLVQAGGSLRLSCAASGSIFSYDAMGWYRLAPGKERELVAVINSGGRTNYADSVKGRFTISRDNAKNTVYLQMNRLKPEDTAVYYCAAQGYFVDRAGRYDRGDYWGQGTQVTVSS | high polyreactivity
14 | QVQLVESGGGLVQAGGSLRLSCAASGSIFSYNAMGWSRQAPGNERELVARISYSGGSTYYADSVKGRFTISRDNAKNTVYLQMNSLKPEDTAVYYCAKRAYGWPYDYWGQGTQVTVSS | high polyreactivity
15 | QVQLVESGGGLVQAGGSLRLSCAASGSIFSYNVMGWYRPAPGKERELVAAITQSGTSTYYADSVKGRFTISRDNAKNTVYLQMNSLKPEDTAVYYCAVDWYSAYGGYYWSQYDYWGQGTQVTVSS | low polyreactivity
16 | QVQLVESGGGLVQAGGSLRLSCAASGSIFSYYAMGWSSQAPGKERELVAAISKRGASTYYADSVKGRFSISRDIAKNTVYLQMNSLKPEDTAVYYCAAYRQGSAYDYWGKGTQVTVSS | high polyreactivity
17 | QVQLVESGGGLVQAGGSLRLSCAASGSIFSYYAMGWYRQAPGKERELVAAINGGDSTNYADSVKGRFTISRDNAKNTVYLQMNSLKPEDTAVYYCAADNYDAALLFEYYYWGQGTQVTVSS | low polyreactivity
18 | QVQLVESGGGLVQAGGSLRLSCAASGSIFSYYAMGWYRQAPGKERELVAAISQSGGSTYYADSVKGRFTISRDNAKNTVYLQMNSLKPEDTAVYYCNAVARHTRSKYGSWGQGTQVTVSS | high polyreactivity
19 | QVQLVESGGGLVQAGGSLRLSCAASGSIFSYYAMGWYRQAPGKERELVAAISRSGVSTYYADSVKGRFTISRDNAKNTVYLQMNSLKPEDTAVYYCNAVFTWPRRKYGYDYWGQGTQVTVSS | high polyreactivity
20 | QVQLVESGGGLVQAGGSLRLSCAASGSIFSYYAMGWYRQAPGKERELVAAISSRGGSTYYADSVKGRFTISRDNAKKTVYLQMNSLKPEDTAVYYCAADWTSWFGVTYDYWGQGTQVTVSS | high polyreactivity

Row | Sequence | polyreactivity (PSR sort gate)
21 | QVQLVESGGGLVQAGGSLRLSCAASGSIFSYYAMGWYRQAPGKERELVAAISWSGTSTYYADSVKGRFTISRDNAKNTVYLQMNSLKPEDTAVYYCNAGDNPIFDLGQGTQVTVSS | high polyreactivity
22 | QVQLVESGGGLVQAGGSLRLSCAASGSIFSYYAMGWYRQAPGKERELVAGISISTGSTYYADSVKGRFTISRDNAKNTVYLQMNSLKPEDNAVYYCAAAQDDGYSQDIYYQLSAYDYWGQGTQVTVSS | low polyreactivity
23 | QVQLVESGGGLVQAGGSLRLSCAASGSIFSYYAMGWYRQAPGKERELVASITSGGSTNYADSVKGRFTISRDNAKNTVYLQMNSLKPEDTAVYYCNKDGKYHRVLYDYWGQGTQVTVSS | low polyreactivity
24 | QVQLVESGGGLVQAGGSLRLSCAASGSIFSYYAMGWYRQAPGKERELVAVISSSGGRTYYADSVKGRFTISRDNAKNTVYLQMNSLKPEDTAVYYCAAKYRVFYGFDYWGQGTQVTVSS | high polyreactivity
25 | QVQLVESGGGLVQAGGSLRLSCAASGSIFSYYDMGWYRQAPGKERELVAGISRGGSTNYADSVKGRFTISRDNAKNTVYLQMNSLKPEDTAVYYCNADQSSRTYPFRRSRRSWLYGYWGQGTQVTVSS | low polyreactivity
26 | QVQLVESGGGLVQAGGSLRLSCAASGSIFSYYVKGWYRQAPGKERELVAVITDRGGRTYYADSVKGRFTISRDNAKNPVYLQMNSLKPEDTAVYYCNKYIRRYLIYGSWGQGTQVTVSS | high polyreactivity
27 | QVQLVESGGGLVQAGGSLRLSCAASGSIFTAYAMGWYRQAPGKERELVAAIDDSGDSTYYADSVKGRFTISRDNAKNTVYLQMNSLKPEDTAVYYCKAEYRVNKEYDYWGQGTQVTVSS | low polyreactivity
28 | QVQLVESGGGLVQAGGSLRLSCAASGSIFTDNAMGWYRQAPGKERELVAGISYNGDNTYYADSVKGRFTISRDNAKNTVYLQMNSLKPEDTAVYYCAAADGIIESDYWGQGTQVTVSS | low polyreactivity
29 | QVQLVESGGGLVQAGGSLRLSCAASGSIFTFNAMGWYRQAPGKERELVAAISTGGNTYYADSVKGRFTISRDNAKNTVYLQINSLKPEDTAVFYCAAVRRTDGDGKYYYWGQGTQVTVSS | high polyreactivity
30 | QVQLVESGGGLVQAGGSLRLSCAASGSIFTFYAMGWYRQAPGKERELVAAISSGGRTYYADSVKGRFTISRDNAKNTVYLQMNSLKPEDTAVYYCAASYQQYFYRYALPADYYYWGQGTQVTVSS | high polyreactivity
31 | QVQLVESGGGLVQAGGSLRLSCAASGSIFTFYAMGWYRQAPGKERELVATINRIGGNTYYADSVKGRFTISRDNAKNSVYLLMKSLKPEETAVYYCAVCPYTRPYYRTFDHWGQGTLVTVSS | low polyreactivity
32 | QVQLVESGGGLVQAGGSLRLSCAASGSIFTFYAMGWYRQAPGKERELVATINRIGGNTYYADSVKGRFTISRDNAKNTVYFQMNSLKPEDTAVYYCAADRSAWGSNWETQFDYWGQGTQVTVSS | low polyreactivity
33 | QVQLVESGGGLVQAGGSLRLSCAASGSIFTFYTMGWYRQAPGKERELVAAINWSGSRTYYADSVKGRFTISRDNAKNTVYLQMNSLIQEDTAVYYCNVRCYYKRRYGWYSYRYGYWGQGTQVTVSS | high polyreactivity
34 | QVQLVESGGGLVQAGGSLRLSCAASGSIFTGYAMGWYRQAPGKERELVAAISYSTGRTYYADSVKGRFTISRDNAKNTVYLQMNSLKPEDTAVYYCAARYREQYDYWGQGTQVTVSS | low polyreactivity
35 | QVQLVESGGGLVQAGGSLRLSCAASGSIFTGYDMGWYRQAPGKERELVAVISTAGRTYYADSVKGRFTISRDNAKNTVYLQMNSLKPEDTAVYYCAKRSYSKDQPRYGYWGQGTQVTVSS | low polyreactivity
36 | QVQLVESGGGLVQAGGSLRLSCAASGSIFTIYAMGWYRQAPGKERELVAAISFSGGSTYYADSVKGRFTISRDNAKNTVYLQMNSLKPEDTAVYYCAADGGFTYDNWGQGTQVTVSS | low polyreactivity
37 | QVQLVESGGGLVQAGGSLRLSCAASGSIFTIYAMGWYRQAPGKERELVATITGGGGSTYYADSVKGRFTISRDNAKNTVYLQMNSLKPEDTAVYYCATDFRRTRSYGNSRSYGYWGQGTQVTVSS | low polyreactivity
38 | QVQLVESGGGLVQAGGSLRLSCAASGSIFTKYAMGWYRPAPGKERELVAAISYSGGTRTYYADSVKGRFTSSRDNAKNTVYLQMNSLKPEDTAVYYCAARRYTRRANPAYPYEYWGQGTQVTVSS | high polyreactivity
39 | QVQLVESGGGLVQAGGSLRLSCAASGSIFTKYAMGWYRQAPGKEREFVAAITLSGGSTYYADSVKGRFTIGRDNAKNTVYLQMNSLKPEDTAVYYCNAAYTYVTAWYYYWGQGTQVTVSS | high polyreactivity
40 | QVQLVESGGGLVQAGGSLRLSCAASGSIFTLYAMGSYRQAPGKERELVAAITWSGGSTYYADSVKGRFTISRDNAKNTVYLQMNSLKPEDTAVYYCAKDYLAGGPWEGHVEREYDYWGQGTQVTVSS | low polyreactivity
